Data from the nanobody polyreactivity screen of Harvey et al. (2022).

test: yeast display, Sf9 membrane polyspecificity reagent, FACS + sequencing; frameworks hold sequencing errors
How it was run: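 Sorting gates, low and high (top ~1%), were placed on anti-HA fluorescence to track expression and on streptavidin fluorescence to track reagent binding. A clone's polyreactivity label is taken from the gate it came out of. The reagent was 10% biotinylated, detergent-solubilized Sf9 membrane, applied for 1 hour at 4 °C to galactose-induced yeast display cells.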

Row | Sequence | polyreactivity (PSR sort gate)
1 | QVQLVESGGGLVQAGGSLRLSCAASGRIFGNNAMAWYRQATGKESELVAGISRTGGSTYYADSVKGRFTISRDNAKNTVYLQMNSLKPEDTAVFYCAALVYSGRYASYGYWGQGTQVTVSS | low polyreactivity
2 | QVQLVESGGGLVQAGGSLRLSCAASGLTFQLYGMGWYRQAPGKERELVAAISGSGGRTYYADSVKGRFTISRDNAKNTVYLQMNSLKPEDTAVYYCAARPGSGRSYTSDYWGQGTQVNVSS | high polyreactivity
3 | QVQLVESGGGLVQAGGSLRLSCAASGRTLRYNAMGWDRQAPGKERELVAAISTRGTNTYYADSVKGRFTISRDNAKNTVYLQMNSLKPEDTAVYYCAAKKGGYPYSVYSGTRHNYWGQGTQVTVSS | high polyreactivity
4 | QVQLVESGGGLVQAGGSLRLSCAASGRIFVINDMGWYRKATGKERELVAAITWGSSTYADSVKGRFTISRDNAKNTVYLQMNSLKPEDTAVYYCARDVYPSTWEYDYWGQGTQVTVSS | low polyreactivity
5 | QVQLVESGGGLVQAGGSLRLSCAASGSIFRPYAMGWYRPAPGQDRELVAAISSSGGGTYYADSVKGRFTISRDNAKKTVYLQMNSLKPEDTAVYLYGSWGQGTQVTVSS | low polyreactivity
6 | QVQLVESGGGLVQAGGSLRISCAASGITFNKNDMGWYRQAPGKERELVAAISGRGGSTYYADSVKGRVTISRDNAKNTVYLQMNSLKPEDTAVYYCAADNFKGDSYGTGNYDYWGQGTQVTVSS | high polyreactivity
7 | QVQLVESGGGLVQAGGSLPLSCAASGRIFVVYAMGWYRQAPGKERDLVAGISWTDGRTYYADSVKGRFTISRDNAKNTVYLLMNSLKPEDTAVYYCNKARTSQYHHTYWRTYGYWGQGTQVTLSS | low polyreactivity
8 | QVQLVESGGGLVQAGGSLRLSCAASGLTCSRNAMGWYRQAPGKERELVAAINWSGGSTYYADSVKGRFTISRDNAKNTVYLQMNSLKPEDTAVYYCAAEYAPSPYDWGYEYWGQGTQVTLSS | high polyreactivity
9 | QDQLVESGGGLVHAGGSLRLSCAASVSIFVRNAMGWYRQAPGKERELVAADSVKGRFTISRDNAKNTVYLQMNSLKPEDTAVYYCNKDYIIRRGPIVYYGFDYWGQGTQVTVSS | low polyreactivity
10 | QVQLVESGGGLVQAGGSLRLSCAASGGTFYVYAMGWYRQAPGKERELVAAISTSGGSTYYADSVKGRFTISRDNAKNTVYLQMNSLKPEDTAVYYCAARRVSFSGHPRYGYWGQGTQVTVSS | high polyreactivity
11 | QVQLVESGGGLVQAGGSLRLSCGASGRIFRGYTMGWYRQAPGKERELVAAINRSGGNTYYADSVKGRFTISRDNAKNTVYLQLNSLKPEDTAVYYCAAGARGYGWRGDYWGQGTQVTVSS | low polyreactivity
12 | QVQLVESGGGLVQAGGSLRLSCAASGGIFSYYAMGWYIQAPGKERELVAAISGSGGRTYYADSVKGRFTLSRDNAKNTVYLQMNSLKPEDTAVYYCAAYPVNRVDYRYDYWGQGTQVTVSS | high polyreactivity
13 | QVQLVESGGGLVQAGGSLRLSCAASGIIFVKNAMGWYRQAPGKERELVASISGSGGRTYYADSVKGRFTISRDNAKNTVYLQMKSLKPEDTAVYYCNTLLAPHARKARRHDYWGQGTQVTVSS | low polyreactivity
14 | QVQLVESGGRLVQAGGILRLSCAASGRIFNRYAMGWSRQAPGKEREFVARITGSGGRTYYADSVKGRFTISRDNAKNTVYLQMNSLKPEDTAVYYCARDRGYQSGYDFWGQGSQVTVSS | high polyreactivity
15 | QVQLVESGGGLVQAGGSLRLSCAASGSIFIIYAMGRYRQAPGKERELVAAIRGRGGSTYYADSVKGRFTISRDKAKNTVYLEMNSLNPEDSAVYYCAASVDRGYNYWGEGTQVTVSS | high polyreactivity
16 | QVQLVESGGGLVQAGGSLRISCAASGFTFNANAMAWYRQAPGKERELVAAISLSGGRTYYADSVKRRFTISRDNAKNTVYLQMNSMKQVDTAVYYCAASPDGSFRRFSRVVSGDYWGQGTQVTVSS | high polyreactivity

Row | Sequence | polyreactivity (PSR sort gate)
17 | QVQLVESGGGLVQAGGSLRLSCAASASIISYYAKGWYRQAPGKERELVAAISGSGSRTYYADSVKGRFTISRDNAKNTVYLQMNSLKPEDTAVYYCAARSLYRGFGYWGQGTQVTVSS | high polyreactivity
18 | QVQLVESGGGLVQAGGSLSLSCAASGSTFNRNAMGWDRQAPGKEREFVAAITWSGGSTYYADSVKGRFTISRDNAKNTVYLQMNSLKPEDTAVYYCNADRFSSRHSYDYWGQGTQVTVSS | low polyreactivity
19 | QVQLVESGGGLVQAGGSLRLSCAASGRIFWGYAMGWSRQAPGKERELVAGITYSGGSTYYADSVKGRFTISRDNAKNTVYLQMNSLKPEDTAVYYCAAAKSYRSGSWYEYWGQGTEVTVSS | high polyreactivity
20 | QVQLVESGGGLVQAGGSLRLSCAASGRTFNRYAMGWYRQAPGKERELVAAITRGGSTYYADSVKGRFTISRDNAQNTVYLQMNSLKPEDTAVYYCAKYVYSEGYYWGQGTQVTVSS | high polyreactivity
21 | QVQLVESGGGLVQAGGSLRLSCAASGFIFQPYAMGWYRQAPGKERELVAAITSRGGRTYYADSVQGRFTICRDNAKNTVYLQMNSLKPEDTSVYYCNADIYASEYYYWGQGTQVTVSS | low polyreactivity
22 | QVQLVESGGGLVQAGCSLRLSCAASGSIFGWYAMGWYRQAPGTERELVAAITLIGGSTYYADSVKGRFTISRDNAKNTVYLQMNSLKPEDTAVYYCNAVWYWGDMDYWGQGTQVTVSS | low polyreactivity
23 | QVQLVESGGGLVQAGGSLRLSCAASGSILSRYAMGWYRQAPGKERELVATITRRGGSTFYADSVKGRFTISRDNAKNTVYLQMNSLKPEDTAVYYCAVGRLFWGQGTQVTVSS | low polyreactivity
24 | QVQLVESGGGLVQAGGSLRLSCAASGFIFYYYAMGWYRPAPGKERELVAAISGSGGSTYYADSVKGRFTISRDNAKNTGYLQMNSMNPEDTAVYYCAAVQAAGSHAYDYWGQGTQVTVSS | high polyreactivity
25 | QDQLVESGGGLVQAGGSLRLSCAASGFIFGYYAMGWYRQAPGKERDLFAAINKNGGSTYYADSVKGRFTISRDNAKNTFYLQRNSLIPEDTAVYYCASRARGYAWTYDYWGQGTQVTVSS | high polyreactivity
26 | HVQLVESGGGLVQAGGSLRLSCAASGRIFYYNGMGWYRPAPGKERELVAAITPSDTSTYYAVSVKGRFTISRDNAKNTVYLQMNSLKPEDTAVYYCNADYDNHEMDYWGQGTQVTVSS | low polyreactivity
27 | QVQLVESVGGLVQAGGSLRLSCAASGSTFYPNAMGWYRQAPGKEREFVAAITWSGGRTYYADSVKGRFTNSRDNAKNTVYLQMNSLKPEDTAVYYCSKGGYQHYCGQGTQVTVSS | high polyreactivity
28 | QVQLVESGGGLVQAGCSLRLSCAASGSIYPYAMGWYRQAPGKERELVDAISFSDDRTYYADSVKGRFTISRDIAKNNVYVQMNSLKPEDTAFYYCDAYYFSADEYEYVYWGQGTQVTLSS | high polyreactivity
29 | QVQLVESGGGLVQAGGSLRVSCAASGLIFYRYAMGWYRQAPGKERELVAAITTRGGSTYYADSVKGRFTISRDNAKITVYLQMNSLKPEDTAVYYCATYFRAKGYTGRYYYWGQGTQVTVSS | high polyreactivity
30 | QVQIVESVGGLLQAGGSLRLSCAASGRIFQGYAMGWYRQAPGKERELVASISSCGRTYYADSVKGRFTISRDNAKNTVYLQFNSLTPEDTAVYYCAKRPQFFWSNPYDYWGLGTQVTVSS | high polyreactivity
31 | QVQLVESGAGLVQAGGSLRLSCAASGFTFFGDYAMGWYRQAPGKERELVAAIDWSGGTTYYADSVKGRFTISRDNAKNTVYLQMNSLKPEDTAVYYCARRYYYSYPPQEDDYWGQGTQVTVSS | high polyreactivity
32 | HDQHVESGGGLVQAGGSLRLSCAASGFTFYFYTMGWYRQAPGKERELVAAITGSGGSTYYADSVKARFTFSRDNAKNTVYLQMNSLKPEDTAVYYCAASYYPERVATWRGYYYWGQGTQVTVSS | high polyreactivity
